Here are results for 3 proteins from ChEMBL document CHEMBL3085760, “Novel polyamine analogues: from substrates towards potential inhibitors of monoamine oxidases” (Eur J Med Chem, 2013).

Substrate in data set [1]: CN(CCCCCCCCCCCCN)Cc1ccccc1
Description: (§1) Activity at recombinant human MAO-A expressed in baculovirus infected BT1 cells assessed as hydrogen peroxide generation rate preincubated for 30 mins by Amplex Red assay.

Substrate in data set [2]: NCCCCCCCCCCCCNCc1ccccc1
The data set is described as §1.

Substrate in data set [3]: NCCCCCCCCCCCCNCc1cccs1
The description is as §1.

Substrate in data set [4]: CN(CCCCCCCCCCCCN)Cc1ccccc1
The data set can be described thus: (§2) Activity at recombinant human MAO-B expressed in baculovirus infected BT1 cells assessed as hydrogen peroxide generation rate preincubated for 30 mins by Amplex Red assay.

Substrate in data set [5]: NCCCCCCCCCCCCNCc1ccccc1
The data set is described as §2.

Substrate in data set [6]: NCCCCCCCCCCCCNCc1cccs1
The description is as §2.

Substrate in data set [7]: NCCCOCCCCOCCCNCc1cccs1
Described as §2.

Substrate in data set [8]: CN(CCCCCCCCCCCCN)Cc1ccccc1
Description: (§3) Activity at recombinant human VAP-1 assessed as hydrogen peroxide generation rate preincubated for 30 mins by Amplex Red assay.

Substrate in data set [9]: NCCCCCCCCCCCCNCc1ccccc1
The description is as §3.

Substrate in data set [10]: NCCCCCCCCCCCCNCc1cccs1
The data set is described as §3.

Substrate in data set [11]: NCCCCCCCCNCCCNCc1cccs1
The data set is described as §3.

Substrate in data set [12]: NCCCOCCCCOCCCNCc1cccs1
The description is as §3.

B1: Amine oxidase [flavin-containing] A (Homo sapiens) (protein)
chain: MENQEKASIAGHMFDVVVIGGGISGLSAAKLLTEYGVSVLVLEARDRVGGRTYTIRNEHVDYVDVGGAYVGPTQNRILRLSKELGIETYKVNVSERLVQYVKGKTYPFRGAFPPVWNPIAYLDYNNLWRTIDNMGKEIPTDAPWEAQHADKWDKMTMKELIDKICWTKTARRFAYLFVNINVTSEPHEVSALWFLWYVKQCGGTTRIFSVTNGGQERKFVGGSGQVSERIMDLLGDQVKLNHPVTHVDQSSDNIIIETLNHEHYECKYVINAIPPTLTAKIHFRPELPAERNQLIQRLPMGAVIKCMMYYKEAFWKKKDYCGCMIIEDEDAPISITLDDTKPDGSLPAIMGFILARKADRLAKLHKEIRKKKICELYAKVLGSQEALHPVHYEEKNWCEEQYSGGCYTAYFPPGIMTQYGRVIRQPVGRIFFAGTETATKWSGYMEGAVEAGERAAREVLNGLGKVTEKDIWVQEPESKDVPAVEITHTFWERNLPSVSGLLKIIGFSTSVTALGFVLYKYKLLPRS
Take B1: the values for the Km in data set [1], in data set [2] and in [3] were 44 µM, 43 µM and 80 µM, respectively.

B2: Amine oxidase [flavin-containing] B (Homo sapiens) (protein)
chain: MSNKCDVVVVGGGISGMAAAKLLHDSGLNVVVLEARDRVGGRTYTLRNQKVKYVDLGGSYVGPTQNRILRLAKELGLETYKVNEVERLIHHVKGKSYPFRGPFPPVWNPITYLDHNNFWRTMDDMGREIPSDAPWKAPLAEEWDNMTMKELLDKLCWTESAKQLATLFVNLCVTAETHEVSALWFLWYVKQCGGTTRIISTTNGGQERKFVGGSGQVSERIMDLLGDRVKLERPVIYIDQTRENVLVETLNHEMYEAKYVISAIPPTLGMKIHFNPPLPMMRNQMITRVPLGSVIKCIVYYKEPFWRKKDYCGTMIIDGEEAPVAYTLDDTKPEGNYAAIMGFILAHKARKLARLTKEERLKKLCELYAKVLGSLEALEPVHYEEKNWCEEQYSGGCYTTYFPPGILTQYGRVLRQPVDRIYFAGTETATHWSGYMEGAVEAGERAAREILHAMGKIPEDEIWQSEPESVDVPAQPITTTFLERHLPSVPGLLRLIGLTTIFSATALGFLAHKRGLLVRV
In the case of B2, the Km (usually the concentration of substrate that gives half-maximal velocity) came out at 12 µM in [4], 50 µM in data set [5], 18 µM in data set [6] and 401 µM in data set [7].

B3: Amine oxidase [copper-containing] 3 (Homo sapiens), Q16853 (protein)
chain: MNQKTILVLLILAVITIFALVCVLLVGRGGDGGEPSQLPHCPSVSPSAQPWTHPGQSQLFADLSREELTAVMRFLTQRLGPGLVDAAQARPSDNCVFSVELQLPPKAAALAHLDRGSPPPAREALAIVFFGRQPQPNVSELVVGPLPHPSYMRDVTVERHGGPLPYHRRPVLFQEYLDIDQMIFNRELPQASGLLHHCCFYKHRGRNLVTMTTAPRGLQSGDRATWFGLYYNISGAGFFLHHVGLELLVNHKALDPARWTIQKVFYQGRYYDSLAQLEAQFEAGLVNVVLIPDNGTGGSWSLKSPVPPGPAPPLQFYPQGPRFSVQGSRVASSLWTFSFGLGAFSGPRIFDVRFQGERLVYEISLQEALAIYGGNSPAAMTTRYVDGGFGMGKYTTPLTRGVDCPYLATYVDWHFLLESQAPKTIRDAFCVFEQNQGLPLRRHHSDLYSHYFGGLAETVLVVRSMSTLLNYDYVWDTVFHPSGAIEIRFYATGYISSAFLFGATGKYGNQVSEHTLGTVHTHSAHFKVDLDVAGLENWVWAEDMVFVPMAVPWSPEHQLQRLQVTRKLLEMEEQAAFLVGSATPRYLYLASNHSNKWGHPRGYRIQMLSFAGEPLPQNSSMARGFSWERYQLAVTQRKEEEPSSSSVFNQNDPWAPTVDFSDFINNETIAGKDLVAWVTAGFLHIPHAEDIPNTVTVGNGVGFFLRPYNFFDEDPSFYSADSIYFRGDQDAGACEVNPLACLPQAAACAPDLPAFSHGGFSHN
Regarding B3, the Km was determined as 9 µM in data set [8]; 5 µM in data set [9]; 11 µM in [10]; 1730 µM in data set [11]; 350 µM in data set [12].
